In patent WO2015137441A1:

Target: myrNAP22 (myristoylated NAP22), rat (rat) (UniProt Q05175)
Experiment: immunoprecipitation with control beads, supernatant on SDS-PAGE, Coomassie staining

Sequence of UniProt Q05175 (Q05175 2-220 limits assumed): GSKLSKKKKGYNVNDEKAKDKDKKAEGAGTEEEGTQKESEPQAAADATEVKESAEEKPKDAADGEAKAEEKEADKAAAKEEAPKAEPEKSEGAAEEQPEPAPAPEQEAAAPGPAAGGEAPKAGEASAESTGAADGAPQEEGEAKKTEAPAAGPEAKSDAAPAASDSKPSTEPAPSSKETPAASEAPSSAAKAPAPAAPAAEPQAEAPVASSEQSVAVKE

signal intensity of myrNAP22 left in the supernatant (lane 2) relative to input (lane 3): 90%
Substance: control clone (an antibody clone randomly cloned from the library) (scFv)
